Source: US20230357422A1 (published 2023)
Changes are numbered by the printed parent chain.

B1: L-Yr-13&14-05 (Fc fusion)
chain: QVQLQESGGGLVQAGGSLRLSCAASGRTLSGYVMGWFRQASGKERELVAAISSGGSTYYEDSVKGRFTISRDNAKNTMYLQMNSLKPEDTAVYYCAADPRRLTGLYDYWGQGTQVTVSSTHTCPPCPAPEAAGGPSVFLFPPKPKDTLMISRTPEVTCVVVDVSHEDPEVKFNWYVDGVEVHNAKTKPREEQYNSTYRVVSVLTVLHQDWLNGKEYKCKVSNKALPAPIEKTISKAKGQPREPQVYTLPPSREEMTKNQVSLTCLVKGFYPSDIAVEWESNGQPENNYKTTPPVLDSDGSFFLYSKLTVDKSRWQQGNVFSCSVMHEALHNHYTQKSLSLSPG
B2: L-Yr-13&14-03 (Fc fusion)
chain: QVQLQESGGGLVQPGESLRLSCDSGRIFSYNFMGWYRQAPGKQRELVASITWGGTIKYADSVKGRFTISRHDAENTVYLQMNSLKSEDTAVYYCHAATDTGVIYWGQGTQVTVSSTHTCPPCPAPEAAGGPSVFLFPPKPKDTLMISRTPEVTCVVVDVSHEDPEVKFNWYVDGVEVHNAKTKPREEQYNSTYRVVSVLTVLHQDWLNGKEYKCKVSNKALPAPIEKTISKAKGQPREPQVYTLPPSREEMTKNQVSLTCLVKGFYPSDIAVEWESNGQPENNYKTTPPVLDSDGSFFLYSKLTVDKSRWQQGNVFSCSVMHEALHNHYTQKSLSLSPG
B3: L-Yr-13&14-06 (Fc fusion)
chain: QVQLQESGGGLVEAGGSLRLSCAASGSIFSINVMGWYRQAPGKQRELVAVITSDYSTNYADSVKGRFTISRDNAKNTVYLQMNSLKPEDTAVYHCAATGYGSSPWYWGQGTQVTVSSTHTCPPCPAPEAAGGPSVFLFPPKPKDTLMISRTPEVTCVVVDVSHEDPEVKFNWYVDGVEVHNAKTKPREEQYNSTYRVVSVLTVLHQDWLNGKEYKCKVSNKALPAPIEKTISKAKGQPREPQVYTLPPSREEMTKNQVSLTCLVKGFYPSDIAVEWESNGQPENNYKTTPPVLDSDGSFFLYSKLTVDKSRWQQGNVFSCSVMHEALHNHYTQKSLSLSPG
B4: A-Ye-25 (Fc fusion)
chain: QVQLQESGGGLVQVGGSLRLSCAASGFTFDDYAIGWFRQAPGKEREGVLCISSSGGSTYYADSLKGRFTISRDNAKNTVYLQMTNLKPEDTAVYLCGAPRDCSLYTGDDYWGQGTQVTVSSTHTCPPCPAPEAAGGPSVFLFPPKPKDTLMISRTPEVTCVVVDVSHEDPEVKFNWYVDGVEVHNAKTKPREEQYNSTYRVVSVLTVLHQDWLNGKEYKCKVSNKALPAPIEKTISKAKGQPREPQVYTLPPSREEMTKNQVSLTCLVKGFYPSDIAVEWESNGQPENNYKTTPPVLDSDGSFFLYSKLTVDKSRWQQGNVFSCSVMHEALHNHYTQKSLSLSPG
B5: A-Ye-27 (Fc fusion)
chain: QVQLQESGGGLVQPGGSLRLSCAASGFSLGLYAIGWFRQAPGKEREWVSCIMSSDSSAYYADSVKGRFTVSRDNAKNTVYLQMTNLKPEDTAVYLCGAPRDCSRYSSDDYWGQGTQVTVSSTHTCPPCPAPEAAGGPSVFLFPPKPKDTLMISRTPEVTCVVVDVSHEDPEVKFNWYVDGVEVHNAKTKPREEQYNSTYRVVSVLTVLHQDWLNGKEYKCKVSNKALPAPIEKTISKAKGQPREPQVYTLPPSREEMTKNQVSLTCLVKGFYPSDIAVEWESNGQPENNYKTTPPVLDSDGSFFLYSKLTVDKSRWQQGNVFSCSVMHEALHNHYTQKSLSLSPG
B6: L-Yr-13&14-01 (Fc fusion)
chain: QVQLQESGGGLVQAGGSLRLSCAASGSFNAMGWWRQAPGKQREFVAIITRDGSTNLADSVKGRFTISSDNAKNTWFLQMNSLKPEDTAVYYCSASDYGSSLYYWGQGTQVTVSSTHTCPPCPAPEAAGGPSVFLFPPKPKDTLMISRTPEVTCVVVDVSHEDPEVKFNWYVDGVEVHNAKTKPREEQYNSTYRVVSVLTVLHQDWLNGKEYKCKVSNKALPAPIEKTISKAKGQPREPQVYTLPPSREEMTKNQVSLTCLVKGFYPSDIAVEWESNGQPENNYKTTPPVLDSDGSFFLYSKLTVDKSRWQQGNVFSCSVMHEALHNHYTQKSLSLSPG
B7: A-Ye-14 (Fc fusion)
chain: QVQLQESGGGLVQPGGSLRLSCAASGFSLGLYAIGWFRQAPGKEREWVSCIMSSDSSAYYADSVKGRFTVSRDNAKNTVYLQMNRLKPEDTAVYYCAAPQSDCFHYSENDYWGQGTQVTVSSTHTCPPCPAPEAAGGPSVFLFPPKPKDTLMISRTPEVTCVVVDVSHEDPEVKFNWYVDGVEVHNAKTKPREEQYNSTYRVVSVLTVLHQDWLNGKEYKCKVSNKALPAPIEKTISKAKGQPREPQVYTLPPSREEMTKNQVSLTCLVKGFYPSDIAVEWESNGQPENNYKTTPPVLDSDGSFFLYSKLTVDKSRWQQGNVFSCSVMHEALHNHYTQKSLSLSPG
B8: A-Ye-22 (Fc fusion)
chain: B7 chain with P14A, G30D, L31Y, M52T, S53A, V70I, Q82R, R85S, Q100R, S107G
B9: A-Ye-19 (Fc fusion)
chain: B7 chain with P14A
B10: A-Ye-21 (Fc fusion)
chain: B7 chain with G30D, L31Y, V70I, T78L, Q82R, R85S, A97T, Q100R, S107G
B11: A-Ye-23 (Fc fusion)
chain: B7 chain with G35A, M52E, S53K, Y80D, K87S, S107K
B12: HZ-L-Yr-13&14-16-2 (Fc fusion)
chain: QVQLVESGGGVVQPGRSLRLSCAASGSTFSIVAMGWYRQAPGKGLELVASIITGDGDTNYADSVKGRFTISRDNSKNTMYLQMNSLRAEDTAVYYCYARTGYGSSWLMGHEYDYWGQGTQVTVSSTHTCPPCPAPEAAGGPSVFLFPPKPKDTLMISRTPEVTCVVVDVSHEDPEVKFNWYVDGVEVHNAKTKPREEQYNSTYRVVSVLTVLHQDWLNGKEYKCKVSNKALPAPIEKTISKAKGQPREPQVYTLPPSREEMTKNQVSLTCLVKGFYPSDIAVEWESNGQPENNYKTTPPVLDSDGSFFLYSKLTVDKSRWQQGNVFSCSVMHEALHNHYTQKSLSLSPG
B13: Hu-A-NA-19-1 (Fc fusion)
chain: EVQLVESGGGLVKPGGSLRLSCAASGAIFRINTGAWYRQAPGKQRELVASLTTYGKTTYADFVKGRFTISRDDSKNTLYLQMNSLKTEDTAVYYCHIGPEPRYGYWGQGTLVTVSSTHTCPPCPAPEAAGGPSVFLFPPKPKDTLMISRTPEVTCVVVDVSHEDPEVKFNWYVDGVEVHNAKTKPREEQYNSTYRVVSVLTVLHQDWLNGKEYKCKVSNKALPAPIEKTISKAKGQPREPQVYTLPPSREEMTKNQVSLTCLVKGFYPSDIAVEWESNGQPENNYKTTPPVLDSDGSFFLYSKLTVDKSRWQQGNVFSCSVMHEALHNHYTQKSLSLSPG
notes: also called HZ-A-Na-19-1
B14: Hu-A-NA-19-2 (Fc fusion)
chain: B13 chain with Q44G, R45L
notes: also called HZ-A-Na-19-2
B15: GITR-his (receptor, human, UniProt Q9Y5U5 26-162, looked up)
chain: QRPTGGPGCGPGRLLLGTGTDARCCRVHTTRCCRDYPGEECCSEWDCMCVQPEFHCGDPCCTTCRHHPCPPGQGVQSQGKFSFGFQCIDCASGTFSGGHEGHCKPWTDCTQFGFLTVFPGNKTHNAVCVPGSPPAEP
notes: 'Human' heads the list '4-1BB-his, GITR-his, OX40-his, CD40-his' and is read as applying to all four; not shown: his tag
B16: OX40-his (receptor, human, UniProt P43489 29-216, looked up)
chain: LHCVGDTYPSNDRCCHECRPGNGMVSRCSRSQNTVCRPCGPGFYNDVVSSKPCKPCTWCNLRSGSERKQLCTATQDTVCRCRAGTQPLDSYKPGVDCAPCPPGHFSPGDNQACKPWTNCTLAGKHTLQPASNSSDAICEDRDPPATQPQETQGPPARPITVQPTEAWPRTSQGPSTRPVEVPGGRAVA
notes: 'Human' heads the list and is read as applying to all four proteins; not shown: his tag

biological target: T1, 4-1BB antigen (human, UniProt Q07011 24-186, limits assumed); assay: BLI (ForteBio), antibody on AHQ sensor, 100 nM 4-1BB antigen, 1:1 model
T1 construct: also called human 4-1BB antigen; human 4-1BB protein
T1 sequence (Q07011 24-186 limits assumed): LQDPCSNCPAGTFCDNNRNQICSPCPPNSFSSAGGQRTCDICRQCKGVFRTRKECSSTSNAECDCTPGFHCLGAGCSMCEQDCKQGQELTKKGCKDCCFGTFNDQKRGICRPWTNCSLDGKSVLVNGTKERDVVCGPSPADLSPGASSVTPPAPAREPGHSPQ
Procedure: ForteBio affinity determination was performed according to the existing method (Estep, P et al., Solution-based measurement of high-throughput antibody-antigen affinity and epitope classification, MAbs, 2013.5(2):p. 270-8). Briefly, the sensor was equilibrated offline for 30 min in the assay buffer, then the baseline was established by detection online for 60 s, and the purified antibody obtained as described above was loaded onto the AHQ sensor online. Then, the sensor was put into 100 nM 4-1BB antigen to act for 5 minutes, and the sensor was transferred to PBS and dissociated for 5 minutes. Analysis of kinetics was performed using a 1:1 binding model.

Row | Kd [nM] | Binder
1 | 33.5 | B1
2 | 19.1 | B2
3 | 20.6 | B3
4 | 13.5 | B4
5 | 7.55 | B5
6 | 19.5 | B6
7 | 14.5 | B7
8 | 22.6 | B8
9 | 13 | B9
10 | 23 | B10
11 | 23.4 | B11

biological target: T2, human 4-1BB on CHO cells (human, UniProt Q07011 24-255); assay: flow cytometry on CHO cells expressing human 4-1BB
T2 construct: whole, on cells; also called CHO-h4-1BB cells; human 4-1BB CHO-S cells
T2 sequence (Q07011 24-255): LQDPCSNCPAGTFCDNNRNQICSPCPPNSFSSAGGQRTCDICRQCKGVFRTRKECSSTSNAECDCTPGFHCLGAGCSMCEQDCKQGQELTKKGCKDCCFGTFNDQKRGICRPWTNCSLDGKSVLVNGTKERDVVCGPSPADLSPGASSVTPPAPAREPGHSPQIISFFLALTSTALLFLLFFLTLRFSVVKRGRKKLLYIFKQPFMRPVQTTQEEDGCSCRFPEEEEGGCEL
Procedure: CHO cells overexpressing human 4-1BB (CHO-h4-1BB cells) were generated by transfection of pCHO1.0 vector (purchased from Invitrogen) encoding human 4-1BB cDNA cloned into MCS (multiple cloning site). The cell density of the expanded CHO-h4-1BB cells was adjusted to 2×10⁶ cells/ml, added at 100 μl/well to a 96-well flow plate, and centrifuged for later use. The purified 4-1BB antibody was diluted with PBS by 3-fold dilution starting from 400 nM for a total of 12 points. The above-mentioned diluted sample was added at 100 μl/well to the above-mentioned 96-well flow plate with cells, incubated at 4° C. for 30 min, and washed twice with PBS. Goat F(ab′)2 anti-human IgG-Fc (PE) (purchased from Abcam) diluted 100 times with PBS was added at 100 μl/well, incubated at 4° C. for 30 min, and washed twice with PBS. The cells resuspended with PBS was added at 100 μl/well, and detected on CytoFlex (Bechman) flow cytometer, and the corresponding MFI was calculated.

Row | binding result | Binder
12 | binds | B12
13 | binds | B13
14 | binds | B14

biological target: HZ-L-Yr-13&14-16-1; assay: ELISA on coated his-tagged protein
Procedure: Human 4-1BB-his, GITR-his, OX40-his, CD40-his proteins (purchased from ACRO) were dissolved according to the instructions, diluted to 1 μg/ml with ELISA coating solution (purchased from Shanghai Sangon), coated on ELISA plate at 100 allowed to stand overnight at 4° C., and washed for 3 times with PBST, 5% BSA (purchased from Shanghai Sangon) was added at 200 μl/well to block for 1 hour at room temperature. The coating solution was discarded, 4-1BB antibody diluted with 1% BSA was added at 100 200 nM in three replicate wells, and incubated at room temperature for 2 hours. Washing was performed with PBST for 3 times, and goat anti-human IgG-Fc-HRP (purchased from abcam) diluted with 1% BSA was added at 100 μl/well, and incubated at room temperature for 1 hour. Washing was performed 3 times with PBST, ELISA chromogenic solution (purchased from Solarbio) was added at 100 μl/well to react at room temperature for 3 minutes, ELISA stop solution (purchased from Solarbio) was added at 50 and the absorbance value at 450 nm was read.

Row | binding result | Binder
15 | no binding (tested: 200 nM) | B15
16 | no binding (tested: 200 nM) | B16
